In patent publication US20180312557A1, “Leg1 Protein, Leg1 Gene, and Uses and Drugs thereof” (ZHEJIANG UNIVERSITY, priority 2016, published 2018):

Tests used:
[1] = test system: Akt phosphorylation of the HepG2 cells; assay: Akt phosphorylation of HepG2 cells incubated with salivary gland cell culture supernatant (Western blot); type: cell-based, human; conditions: wild type supernatant containing mLeg1
Experimental: 14.1 Culture of human liver cancer cells HepG2: 10% newborn calf serum (GIBCO Cat. No. 16010-159) in DMEM high-glucose culture medium was used to culture the cell line. Cells were kept in a 37° C. incubator with 5% CO2, and saturated humidity. At the time of passage, the culture solution was thoroughly removed, and the left cells was digested with 0.25% typsin (EDTA-free, Sigma Cat. No. T4549), and an appropriate amount of cells were subjected to subculture or subsequent experiments.
14.2 The adherent HepG2 cells were incubated using the culture supernatant of the primary culture of the wild-type mouse salivary gland cells and the culture supernatant of the mLeg1^Δ/Δ mice, and the cell samples were collected 20 minutes later and 10 hours later.
14.3 The content of p-Akt was detected using an Akt phosphorylation antibody by Western blot, so as to reflect Akt phosphorylation level.

[2] = test system: intracellular tyrosine phosphorylation in HepG2 cells; assay: Total intracellular tyrosine phosphorylation in HepG2 cells (antibody 4G10); type: cell-based, human; conditions: HepG2, partially purified mLeg1 vs no addition
Experimental: 18.1 Partially purified mLeg1 was added to the HepG2 cell medium to culture the HepG2 cells, and then total protein was extracted.
18.2 The phosphorylation level of the total intracellular tyrosine was detected through the tyrosine phosphorylation antibody 4G10 (Millipore, 05-321).

EGFR [3] = target: T1, EGFR (Homo sapiens, UniProt P00533); assay: Phospho-RTK array and EGFR phosphorylation specific antibody, HepG2 cells: EGFR; type: cell-based
T1 construct: endogenous in cells; host or cells: HepG2
Experimental: 19.1 The screening of receptor tyrosine kinase was performed by a RTK assay kit (Proteome Profiler Human Phospho-RTK Array Kit, R&D Cat. no. ARY001B) according to the manufacturer's instruction. The kit can detect 49 of 58 RTKs in total. The operation steps are summarized as follows: mLeg1 and a control were used to treat the cells (cells were grown in a 10 cm petri dish) separately, and then 500 μl of lysis buffer17 was used to lyse the cells; the RTK screening membrane was blocked for 1 hour using Assay buffer1 and then coated with a cell lysate for binding overnight, the resultant product was washed three times with 1× Wash Buffer, 10 minutes each time, then added with Anti-Phospho-Tyrosine-HRP Detection Antibody diluted with 1× Array Buffer2 at the ratio of 1:5000 for incubation at room temperature for 2 hours; followed by washing 3 times with 1× Wash Buffer, 10 minutes each time, then applied with Chemi Reagent Mix and developed, and finally imaged in a fluorescent chemiluminescent imager (Clinx Science Instruments Cat. No. 3400) with the signals recorded.
Further, the inventors of the present disclosure detected the impact of mLeg1 on intracellular EGFR activation level by an EGFR phosphorylation specific antibody.

EGFR [4] = target: T2, EGFR (Mus musculus, UniProt Q01279); assay: Co-immunoprecipitation of mLeg1 and EGFR in cells isolated from liver homogenate; type: binding; conditions: liver cells incubated at 4° C. with crosslinking agent DSP
T2 construct: from tissue; host or cells: liver of mLeg1^Δ/Δ mice
Experimental: Since the reaction of mLeg1 activating EGFR is very short and the EGFR will be degraded soon after being activated, the inventors of the present disclosure used mLeg1 to incubate the liver cells at 4° C., and simultaneously added a crosslinking agent DSP thereto to stabilize the interaction between mLeg1 and its potential interacting protein, and then washed mLeg1 and lysed the liver cells using NP40 lysate for co-immunoprecipitation. The experimental method was as follows.
21.1 Antibody crosslinking: 30 μl of proteinA/G (beyotime Cat. No. P2012) was centrifuged at a low speed (500-1000 g) to remove the supernatant, and then washed twice using 4° C. pre-chilled PBS, then added with mLeg1 antibody (20 μg of antibody were dissolved in 1×100 μl PBS) for incubation at room temperature for 30 minutes, and then centrifuged to remove the supernatant. The beads were washed three times with 300 μl of PBS, then incubated with 50 μl of DSS solution (5 μl 10×PBS, 36 μl H2O, 9 μl 2.5 mM DSS (Thermo, Cat. NO. 21655)) for 50 minutes at room temperature. After centrifugation to remove supernatant, the beads were washed three times with 50 μl of 100 mM pH 2.2 glycine, washed twice with 300 μl of PBS containing 1% NP40, and finally washed once with 300 μl of PBS. […]
21.5 The protein pulled down by the mLeg1 antibody was detected by Western blot.

[5] = test system: Akt phosphorylation in the liver; assay: Liver Akt phosphorylation after intragastric administration of mLeg1; type: in vivo, mouse
Experimental: 22.1 The column chromatography partially purified mLeg1 protein was intragastrically administered to the mLeg1^Δ/Δ mice at 50 ng of mLeg1 per gram of body weight of the mice.
22.2 The mice were sacrificed at different time points (0, 10, 20, 40, 60 min) after intragastric administration and liver samples were collected, an immunoprecipitation experiment was conducted to pull down mLeg1 protein (if there is any) and its interacting protein in the liver by using mLeg1 antibodies Reference may be made to steps 21.2-21.5.
This may result from the fact that mLeg1 binds with EGFR rapidly, and transmitted downstream signals rapidly, as in in vitro experiments, mLeg1 can activate EGFR within 1 minute and the phosphorylation level of EGFR began to decrease within 3 minutes. Further, the inventors of the present disclosure also detected the activation of such intragastrically administered mLeg1 protein on downstream Akt. […] According to the above results, mLeg1 secreted from the salivary glands can be transferred into the liver and activates EGFR in the liver, thereby activating Akt to finally regulate the physiological functions of the liver cells.

B1: mLeg1 protein: mouse secretory protein (SEQ ID NO: 2) encoded by mLeg1 gene, partially purified from salivary glands by column chromatography (protein, listed as Mus musculus)
chain: MAVLASWVWVLAGCFCAAVAEVSDSSDPYPPLWEDSPEQLSDYMMEDGNYIINPWVYTDRMGMYRILLEETAMYFAKYGPENEQNLLWGLPLQFGWQYQSGRLADPTGMTDCGNELNESLCVSVDSWWADINYYLSVIPFLAAVDSGITGISPNQITILPPPKDQMRFCYNVSDCQSAVPGTMNRWRDFFQYMQLNSSDFDGLLNYLWEAHASSLDYPTSAFGDRYNFYSEKEANFEENWAIAVNYLAAARLPTTQNRTYSFQRGLPPRVLVDTDIAPFIPDFTPLQNEVLVSLKLLGDTDRNSGSLSLTLWENLMSTKLARTLFLKAFEEFLATSS
modifications: partially purified
- time within which Akt phosphorylation is induced [1]: ≤ 20 min
- phosphorylation level of the intracellular tyrosine [2]: far higher than that of the control group
- intracellular EGFR activation level (EGFR [3]; EGFR phosphorylation specific antibody): could activate the EGFR very rapidly
- tyrosine phosphorylation in EGFR (EGFR [3]; HepG2, Phospho-RTK array): increases significantly
- time within which EGFR is activated (EGFR [3]; in vitro experiments): ≤ 1 min
- time within which the phosphorylation level of EGFR began to decrease (EGFR [3]; in vitro experiments): ≤ 3 min
- interaction with EGFR (pull-down by mLeg1 antibody) (EGFR [4]): EGFR could be co-precipitated
- Akt phosphorylation in the liver ([5]; 10 minutes after intragastric administration): increased
- Akt phosphorylation in the liver ([5]; 40 minutes to 60 minutes after intragastric administration): more significant
